Test [1] concerns the target T1, E. coli RAGE Construct #5, 6His-(Thr)-[RAGE (130-234)] (human).
T1 construct: Expressed in E. coli with an N-terminal 6His-(Thr) tag, which is part of the entry; also called RAGE protein #5
T1 chain: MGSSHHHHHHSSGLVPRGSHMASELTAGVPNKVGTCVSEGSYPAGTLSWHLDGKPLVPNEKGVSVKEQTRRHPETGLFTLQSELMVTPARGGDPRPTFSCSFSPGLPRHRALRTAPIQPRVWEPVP
The experiment in a line: ELISA: RAGE 130-234 (E. coli, D#1477) coated, mAb titrated, anti-mouse HRP conjugate, TMB. Here is the method:
(§1) Antigens (purified construct #1-7 proteins) were diluted into Coating Buffer [100 mM NaHCO₃, pH 8.2] to 1 μg/ml, and 100 μl of the resulting solution was then aliquoted into a 96-well Nunc Immuno Plate (Maxi-Sorb Surface, flat bottom, catalog #439454). The plate was sealed with sealing film and incubated at 4° C. overnight. The next day, the plate wells were each washed 3 times with 150 μL PBST buffer [Sigma PBS+0.05% Tween 20]. Then 300 ul of blocking solution (3% NFDM in PBST) was added to each well. The plate was incubated for 2 hours at room temperature and shaking at 100 rpm. After the incubation step, each well was again washed three times with 150 uL PBST. […] The plate was then sealed with sealing film and incubated for 2 hours at room temperature and shaking at 100 rpm. Next the antibody solution was drained out of the wells, and each well then washed three times with 200 ul PBST. To each well then 200 ul of a 1:5000 dilution (in PBST/1% NFDM) of conjugated secondary antibody [Donkey anti-mouse HRPO conjugate, Jackson Immuno Research, Catalog #715-035-150] was added. The plate was covered and allowed to incubate for 1 hour at room temperature while shaking at 100 rpm. Following this incubation, the solution was removed from the wells and each well was washed three times with 200 ul PBST. To each well 100 μL of HRPO substrate [3,3′,5′,5′-Tetramethylbenzidine Liquid Substrate (TMB), Supersensitive for ELISA, Sigma Catalog #T4444] solution was added and the plate incubated at room temperature for 10 minutes. Finally, 50 μL of 2M H₂SO₄ was added to each well to stop the reaction and the A₅₄₀ₙₘ of each well was measured using a microtiter plate reader.
For orientation: ELISA stands for enzyme-linked immunosorbent assay.

Test [2] has as its target T2, E. coli RAGE Construct #6, 6His-(Thr)-[RAGE (130-336)] (human, UniProt Q15109 130-336).
T2 construct: Expressed in E. coli with an N-terminal 6His-(Thr) tag, which is part of the entry; also called RAGE protein #6
Put plainly: ELISA: RAGE 130-336 (E. coli, D#1478) coated, mAb titrated, anti-mouse HRP conjugate, TMB. The method, then:
as §1

For test [3], the target named is T3, E. coli RAGE Construct #3, 6His-(Thr)-[RAGE (24-234)] (human, UniProt Q15109 24-234).
T3 construct: Expressed in E. coli with an N-terminal 6His-(Thr) tag, which is part of the entry; also called RAGE protein #3
The experiment in a line: ELISA: RAGE 24-234 (E. coli, D#1475) coated, mAb titrated, anti-mouse HRP conjugate, TMB. The method, then:
as §1

Test [4] deals with T4, hRAGE (1-331) / human sRAGE 1-331, V#400 (human, UniProt Q15109 23-331).
T4 construct: also called sRAGE [RAGE (1-331)]; RAGE (antigen of the Biacore runs)
T4 sequence (Q15109 23-331): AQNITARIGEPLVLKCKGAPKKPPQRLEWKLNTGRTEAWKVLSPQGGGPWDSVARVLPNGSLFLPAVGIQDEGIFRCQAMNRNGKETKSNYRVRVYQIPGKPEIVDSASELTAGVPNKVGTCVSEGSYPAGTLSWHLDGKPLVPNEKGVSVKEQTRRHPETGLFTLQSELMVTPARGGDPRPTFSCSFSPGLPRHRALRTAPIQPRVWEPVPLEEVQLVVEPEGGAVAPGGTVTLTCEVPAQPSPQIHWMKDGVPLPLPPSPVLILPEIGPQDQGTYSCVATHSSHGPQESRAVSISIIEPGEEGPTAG
The experiment in a line: Biacore 2000 SPR, mAb captured via anti-mouse Fc, RAGE injected 20-0.31 nM, HBS-EP+ buffer, 1:1 fit. The method, then: The assay format for mAb affinity analysis was Fc-based capture via immobilized anti-Fc antibodies. A standard amine coupling protocol was employed to immobilize Fc-specific IgG via primary amines to the carboxy-methyl (CM) dextran surface of CM5 sensorchips (Biacore). […] Briefly, the CM-dextran surfaces were activated by freshly prepared 1:1 50 mM N-hydroxysuccinimide (NHS):200 mM 3-(N,N-dimethylamino) propyl-N-ethylcarbodiimide (EDC). Then the anti-Fc IgG capture reagent (20 ug/ml in 10 mM sodium acetate, pH4.5) was applied to the surface followed by deactivation of the surface and blocking of the residual reactive sites with 1M ethanolamine (pH 8.5).
Each experimental cycle consisted of the following steps: 1) anti-RAGE mAbs were captured in flowcells 2, 3 or 4 to a level of 50-200 RU (depending on the antigen). All measurements were referenced against flowcell 1 which had no captured anti-RAGE mAb. […] 3) the anti-Fc capture surface was regenerated with low pH glycine.
Briefly, the data were double referenced by first, subtracting the signal from the reference cell and second, by subtracting the signal from buffer-only injections.
(SPR reads the build-up and loss of mass on a sensor chip optically.)

Test [5] deals with T5, E. coli RAGE Construct #4, 6His-(Thr)-[RAGE (24-336)] (human, UniProt Q15109 24-336).
T5 construct: Expressed in E. coli with an N-terminal 6His-(Thr) tag, which is part of the entry; also called RAGE protein #4
Put plainly: ELISA: RAGE 24-336 (E. coli, D#1476) coated, mAb titrated, anti-mouse HRP conjugate, TMB. The method, then:
as §1

Test [6] addresses T6, E. coli RAGE Construct #7, 6His-(Thr)-[RAGE (235-336)] (human).
T6 construct: Expressed in E. coli with an N-terminal 6His-(Thr) tag, which is part of the entry; also called RAGE protein #7
T6 chain: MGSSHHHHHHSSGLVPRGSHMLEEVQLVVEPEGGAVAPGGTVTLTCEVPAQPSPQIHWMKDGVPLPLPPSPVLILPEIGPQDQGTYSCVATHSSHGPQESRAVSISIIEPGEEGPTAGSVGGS
Put plainly: ELISA: RAGE 235-336 (E. coli, D#1479) coated, mAb titrated, anti-mouse HRP conjugate, TMB. Here is the method:
as §1

One may read the EC50 (read off the curve) as the concentration at which the effect is half-maximal. Higher therefore signals a less potent agent. For orientation: Kd means a measure of binding affinity in units of concentration. Low readings indicate a tighter complex, high ones a looser complex.

T2 sequence (Q15109 other isoform, or with tags, fused parts or gaps limits assumed): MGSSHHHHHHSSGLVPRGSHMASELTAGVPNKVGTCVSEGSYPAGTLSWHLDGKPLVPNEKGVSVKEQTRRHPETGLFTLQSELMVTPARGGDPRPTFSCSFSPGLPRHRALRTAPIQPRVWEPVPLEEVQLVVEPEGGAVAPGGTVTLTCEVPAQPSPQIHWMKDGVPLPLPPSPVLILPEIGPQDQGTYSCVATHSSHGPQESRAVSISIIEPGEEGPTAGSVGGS

B1: anti-human RAGE monoclonal antibody 11E6 (murine, hybridoma-derived) (antibody, V domains shown)
VH: QIQLVQSGPELKKPGETVKISCKASGYTFTNFGMNWVKQAPGKGLKWMGYINTNTGESIYSEEFKGRFAFSLETSASTAYLQINNLKNEDTATYFCARSRMVTAYGMDYWGQGTSVTVSS
VL: DIVMTQSQKFMSTSVGDRVSITCKASQNVGTAVAWYQQRPGQSPKLLIFSASNRYTGVPDRFTGSGSGTDFTLTLSNMQPEDLADYFCQQYSSYPLTFGVGTKLELKR
notes: also called mAb11E6; ML37-11E6
Take B1: the binding result in test [1] and in test [3] was “no binding” throughout. For the same molecule, the concentration giving a half-maximal response (EC50 (read off the curve)) in test [2] is roughly 0.6 nM; in test [5], roughly 0.2 nM; in test [6] it was roughly 0.04 nM. Besides, the Kd in test [4] was 0.29 nM.

B2: anti-human RAGE monoclonal antibody 4E5 (murine, hybridoma-derived) (antibody, V domains shown)
VH: QVQLQQSGAELVRPGTSVKVSCKASGYAFNNYLIEWIKQRPGQGLEWIGVINPGSGGTNHNEKFKVKATLTADKSSSTAYIQLSSLTSDDSAVYFCARSAGTARARFAYWGQGTLVTVSA
VL: DIQMTQSPSSLSASLGERVSLTCRASQDIGSSLNWLQQEPDGTIKRLIYATSSLDSGVPKRFSGSRSGSDYSLTISSLESEDFVDYYCLQYASFPFTFGSGTKLEIKR
notes: also called mAb4E5; ML37-4E5
Take B2: the binding result in test [1] and in test [3] was “no binding” in each case. Also, the “EC50 (read off the curve)” value in test [2] was roughly 0.5 nM; in test [5], roughly 0.2 nM; in test [6], roughly 0.03 nM. The molecule also returned a Kd in test [4] of 2.2 nM.

B3: anti-human RAGE monoclonal antibody 7F9 (murine, hybridoma-derived) (antibody, V domains shown)
VH: EEKLEESGGGLVQLGGSMKISCVASGFTLSNYWMDWVRQSPEKGLEWIAEIRLKSNYYSTHYAESVKGRFSISRDDSKGSVSLQMDNLTAEDTGIYFCARNAYWYFDVWGTGTTVTVSS
VL: DIVMTQSHKFMSTSVGDRVSATCKASQDVGTSVAWYQQKLGQSPKLLIYWTSTRHTGVPDRFTGSGSGTDFTLTISNVQSEDLADYFCQQYNNYPLTFGDGTKLELKR
notes: also called mAb7F9; MAb 7F9
Turning to B3, the binding result in test [1], in test [2], in test [3], in test [5] and in test [6] was “no binding” throughout. This molecule also had a Kd in test [4] of 0.11 nM.

Source of the values: patent US20170002075A1 (AbbVie / Abbott, published 2017).
